Source: paper PMC10441475, “Structure of METTL3-METTL14 with an m6A nucleotide reveals insights into m6A conversion and sensing”

Legend:
METTL3 WT;METTL14 WT [1] = biological target: T1, METTL3 WT;METTL14 WT (Homo sapiens;Homo sapiens, UniProt Q86U44;Q9HCE5 1-580;1-456, |); experiment: fluorescence polarization; range given for A-RNA and m6A-RNA together; FP: 10 mM HEPES pH 7.5, 50 mM KCl, 5 nM RNA; SPR: 10 mM HEPES pH 7.5, 150 mM KCl, 0.05% P20, 25 C; 2-Ap: 50 mM Tris pH 8.0, 10 mM MgCl2, 0.5 uM RNA, read at 37; details: protein: recombinant;recombinant; tags: His-tag removed by TEV;; copies: 1;1; label: 5' fluorescein; predicted bulged stem-loop
METTL3 WT;METTL14 WT [2] = biological target: T1, METTL3 WT;METTL14 WT; experiment: SPR; 1:1 model; FP: 10 mM HEPES pH 7.5, 50 mM KCl, 5 nM RNA; SPR: 10 mM HEPES pH 7.5, 150 mM KCl, 0.05% P20, 25 C; 2-Ap: 50 mM Tris pH 8.0, 10 mM MgCl2, 0.5 uM RNA, read at 37; details: protein: recombinant;recombinant, tags: His-tag removed by TEV;, copies: 1;1
METTL3 WT;METTL14 R298P = METTL3 WT;METTL14 R298P (Homo sapiens;Homo sapiens, UniProt Q86U44;Q9HCE5 1-580;1-456, |R298P); experiment: SPR; two-state model; FP: 10 mM HEPES pH 7.5, 50 mM KCl, 5 nM RNA; SPR: 10 mM HEPES pH 7.5, 150 mM KCl, 0.05% P20, 25 C; 2-Ap: 50 mM Tris pH 8.0, 10 mM MgCl2, 0.5 uM RNA, read at 37; details: protein: recombinant;recombinant, tags: His-tag removed by TEV;, copies: 1;1
METTL3 R471H;METTL14 WT = METTL3 R471H;METTL14 WT (Homo sapiens;Homo sapiens, UniProt Q86U44;Q9HCE5 1-580;1-456, R471H|); experiment: as above; details: protein: recombinant;recombinant, tags: His-tag removed by TEV;, copies: 1;1
METTL3 WT;METTL14 WT [3] = biological target: T1, METTL3 WT;METTL14 WT; experiment: fluorescence polarization; range given for A-RNA and m6A-RNA together; m6A-RNA said to bind more tightly; FP: 10 mM HEPES pH 7.5, 50 mM KCl, 5 nM RNA; SPR: 10 mM HEPES pH 7.5, 150 mM KCl, 0.05% P20, 25 C; 2-Ap: 50 mM Tris pH 8.0, 10 mM MgCl2, 0.5 uM RNA, read at 37; details: protein: recombinant;recombinant; tags: His-tag removed by TEV;; copies: 1;1; label: 5' fluorescein; predicted bulged stem-loop

Chain of METTL3 R471H;METTL14 WT (Q86U44 whole entry R471H, chain 1 of 2): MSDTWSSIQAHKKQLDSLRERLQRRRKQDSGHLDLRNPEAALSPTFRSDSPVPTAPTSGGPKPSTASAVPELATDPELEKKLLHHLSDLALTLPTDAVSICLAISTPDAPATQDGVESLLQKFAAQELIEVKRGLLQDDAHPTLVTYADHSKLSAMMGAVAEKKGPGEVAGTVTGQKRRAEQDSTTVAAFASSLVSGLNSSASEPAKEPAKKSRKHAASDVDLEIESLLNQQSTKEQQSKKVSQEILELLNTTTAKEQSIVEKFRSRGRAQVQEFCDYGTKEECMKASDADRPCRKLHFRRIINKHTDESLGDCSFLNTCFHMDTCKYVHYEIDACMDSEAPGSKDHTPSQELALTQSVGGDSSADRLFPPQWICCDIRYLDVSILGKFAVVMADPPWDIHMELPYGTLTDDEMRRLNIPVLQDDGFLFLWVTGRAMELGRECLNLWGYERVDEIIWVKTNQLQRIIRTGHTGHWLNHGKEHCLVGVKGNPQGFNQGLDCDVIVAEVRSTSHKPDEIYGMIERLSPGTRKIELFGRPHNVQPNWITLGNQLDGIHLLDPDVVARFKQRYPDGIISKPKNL
Chain of METTL3 R471H;METTL14 WT (Q9HCE5 whole entry, chain 2 of 2): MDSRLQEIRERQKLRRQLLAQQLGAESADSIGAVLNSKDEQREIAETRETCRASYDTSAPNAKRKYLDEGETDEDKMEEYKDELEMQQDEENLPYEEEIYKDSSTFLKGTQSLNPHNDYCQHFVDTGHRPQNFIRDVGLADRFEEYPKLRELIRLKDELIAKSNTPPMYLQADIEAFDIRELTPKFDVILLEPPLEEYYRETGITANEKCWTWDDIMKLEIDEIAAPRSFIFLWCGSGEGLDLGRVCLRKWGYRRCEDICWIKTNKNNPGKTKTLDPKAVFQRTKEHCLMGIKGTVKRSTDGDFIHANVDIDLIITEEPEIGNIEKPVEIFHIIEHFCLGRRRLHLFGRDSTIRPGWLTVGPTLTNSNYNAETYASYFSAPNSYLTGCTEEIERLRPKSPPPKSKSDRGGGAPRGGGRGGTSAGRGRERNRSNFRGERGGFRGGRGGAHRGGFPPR
T1 sequence (Q86U44 whole entry, chain 1 of 2): as the sequence (Q86U44 whole entry R471H, chain 1 of 2) above, with H471R counted along it
T1 sequence (Q9HCE5 whole entry, chain 2 of 2): as the sequence (Q9HCE5 whole entry, chain 2 of 2) above
Chain of METTL3 WT;METTL14 R298P (Q86U44 whole entry, chain 1 of 2): as the sequence (Q86U44 whole entry R471H, chain 1 of 2) above, with H471R counted along it
Chain of METTL3 WT;METTL14 R298P (Q9HCE5 whole entry R298P, chain 2 of 2): as the sequence (Q9HCE5 whole entry, chain 2 of 2) above, with R298P counted along it

| Binder | Kd (METTL3 WT;METTL14 WT [2]; linear single strand) | Kd (METTL3 WT;METTL14 R298P; linear single strand) | Kd (METTL3 R471H;METTL14 WT; linear single strand) | Kd (METTL3 WT;METTL14 WT [2]; bulged stem-loop) | Kd (METTL3 WT;METTL14 R298P; bulged stem-loop) | Kd (METTL3 R471H;METTL14 WT; bulged stem-loop) | further results |
| --- | --- | --- | --- | --- | --- | --- | --- |
| GCCUAGUAGCAGAGAGGACUGCUCCUUGGU (structured_RNA) [Fl-NEAT2* (A-RNA)] | – | – | – | – | – | – | Kd (METTL3 WT;METTL14 WT [1]): ~13.4 nM |
| CUUCGGACUCUGCU (ssRNA, m6A at position 7) [r6T-m6A (biotinyl)] | 3120 nM | 22900 nM | 171 nM | – | – | – | – |
| CUUCGGACUCUGCU (ssRNA) [r6T (biotinyl)] | 1360 nM | 2160 nM | 108 nM | – | – | – | – |
| GCCUAGUAGCAGAGAGGACUGCUCCUUGGU (structured_RNA, m6A at position 18) [rNEAT2-m6A (biotinyl)] | – | – | – | 337 nM | 538 nM | 62.8 nM | – |
| GCCUAGUAGCAGAGAGGACUGCUCCUUGGU (structured_RNA, m6A at position 18) [Fl-NEAT2*-m6A (m6A-RNA)] | – | – | – | – | – | – | Kd (METTL3 WT;METTL14 WT [3]): ~13.4 nM |
| GCCUAGUAGCAGAGAGGACUGCUCCUUGGU (structured_RNA) [rNEAT2 (biotinyl)] | – | – | – | 256 nM | 356 nM | 58.8 nM | – |
